Experiments:
[1] = target: T1, human LRIG1 extracellular domain fused to a linker-spaced 6-histidine tag, LRIG1-ECD-His (R&D systems, … (human, UniProt Q96JA1 35-794)); assay: LRIG1 ECD ELISA-positive hybridoma antibodies tested in blocking ELISA on plate-bound LRIG1-ECD-His
T1 construct: Bought protein; also called human LRIG1-His; hLRIG1-His; not shown: linker-spaced 6-histidine tag
T1 sequence: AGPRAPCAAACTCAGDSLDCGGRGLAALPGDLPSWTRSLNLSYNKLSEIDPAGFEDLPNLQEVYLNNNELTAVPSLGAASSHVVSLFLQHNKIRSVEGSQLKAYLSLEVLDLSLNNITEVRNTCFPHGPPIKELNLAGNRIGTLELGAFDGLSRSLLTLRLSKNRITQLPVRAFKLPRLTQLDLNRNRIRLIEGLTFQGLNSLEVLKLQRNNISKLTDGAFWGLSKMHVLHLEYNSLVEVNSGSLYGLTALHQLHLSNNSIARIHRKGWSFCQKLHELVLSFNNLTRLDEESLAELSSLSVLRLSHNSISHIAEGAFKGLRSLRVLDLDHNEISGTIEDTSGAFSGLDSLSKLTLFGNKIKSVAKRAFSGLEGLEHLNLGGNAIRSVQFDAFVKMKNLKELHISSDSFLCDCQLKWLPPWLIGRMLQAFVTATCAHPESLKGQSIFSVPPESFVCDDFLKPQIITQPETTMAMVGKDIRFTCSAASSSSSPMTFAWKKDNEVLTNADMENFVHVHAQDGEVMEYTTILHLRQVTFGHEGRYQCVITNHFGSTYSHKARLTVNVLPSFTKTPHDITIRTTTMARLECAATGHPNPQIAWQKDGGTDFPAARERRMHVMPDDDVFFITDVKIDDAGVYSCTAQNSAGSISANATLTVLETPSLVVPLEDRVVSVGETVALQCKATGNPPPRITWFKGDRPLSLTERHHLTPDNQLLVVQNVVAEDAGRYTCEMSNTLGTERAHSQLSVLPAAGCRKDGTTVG
Method: Positively scoring wells were evaluated for the ability to block association of LRIG1 and VISTA. To identify LRIG1-targeted antibodies with the ability to block the interaction of LRIG1 and VISTA, purified LRIG1 and VISTA proteins were incubated in the presence of LRIG1-immunization hybridoma supernatants described above, or without antibody, and protein interaction was evaluated by ELISA. Purified human LRIG1 extracellular domain fused to a HIS tag (R&D Systems) was diluted in phosphate buffered saline (PBS) (Corning) to a concentration of 3 μg/ml and 100 μl was added to each well of a 96-well ELISA plate (Thermo Fisher, 44-2404-21). After incubating the plate at 4° C. overnight, the plate was washed three times with 300 μl of PBS with 0.05% TWEEN (VWR) (PBST) per well. The plate was then blocked for an hour with 200 μl of 2% bovine serum albumin (BSA) (Sigma) in PBST per well at room temperature with gentle rocking. Thereafter, the 2% BSA in PBST was removed and 50 μl of hybridoma supernatant diluted to 3.3 ug/mL was added to the wells. The plate was incubated for 10 minutes at room temperature with gentle rocking. Afterwards, 100 ul of 50 nM oligomerized VISTA in 100 ul PBS buffer was added per well. VISTA oligomerization was performed by Klickmer formation. Briefly, 5 nM Klickmer (Immudex) was incubated with 200 nM hVISTA-Fc-Avi-Biotin in PBS and incubated for one hour. The plate was incubated for an hour at room temperature with gentle rocking. Thereafter, the plate was washed three times with 300 μl of PBST per well, and 100 μl of avidin-HRP (1:1000) (Jackson ImmunoResearch) was then added to each well and the plate was incubated at room temperature for 30 minutes with gentle rocking. Thereafter, the plate was washed three times with 300 μl of PBST per well. 100 μl of TMB substrate (Fisher Scientific, 34029) was then added to each well. The reaction was stopped with 50 μl of 1 M HCl (VWR) per well. The plate was read using a spectrophotometer (Molecular Devices) at absorbance of 450 nm. Percent blockade of LRIG1-VISTA interaction was calculated as the fraction of signal obtained in each experimental samples of the no antibody sample less background signal.

[2] = target: T2, hLRIG1 Peptide 70 (human); assay: peptide ELISA of Example 2, as told in Example 3
T2 construct: 20 amino acid peptide of the LRIG1 peptide library
T2 peptide: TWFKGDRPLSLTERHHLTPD
Method: (§1) To identify the epitopes to which LRIG1 antibodies with and without VISTA-LRIG1 blocking activity bound, a library of 20 amino acid peptides representing portions of LRIG1 was produced, and the ability to bind LRIG1 antibodies was evaluated by ELISA. At least 2 ug/ml of hLRIG1 peptide in 50 μl of PBS or 0.1 ug/ml of full-length human LRIG1 protein (R&D Systems) in 100 μl of PBS was added to the wells of a 96-well ELISA plate (Thermo Fisher, 44-2404-21). After incubating the plate at 4° C. overnight, the plate was washed three times with 300 μl of PBST per well. The plate was then blocked for an hour with 200 μl of 2% BSA in PBST per well at room temperature with gentle rocking. Thereafter, the 2% BSA in PBST was removed and 100 μl of 0.1 ug/ml of antibody in 2% BSA in PBST was added to the wells. The plate was incubated for an hour at room temperature with gentle rocking and then washed three times with 300 μl of PBST per well. Afterwards, 100 μl of anti-mouse IgG-HRP (1:4000) (Jackson ImmunoResearch) or anti-rat IgG HRP (1:4000) (Jackson ImmunoResearch) was added to the wells. The plate was incubated for 30 minutes at room temperature with gentle rocking and then washed three times with 300 μl of PBST per well. 100 μl of TMB substrate (Fisher Scientific, 34029) was then added to each well. The reaction was stopped with 50 μl of 1 M HCl (VWR) per well. The plate was read using a plate reader (Molecular Devices) at absorbance of 450 nm, and signal greater than 0.25 OD was considered evidence of peptide binding.

[3] = target: T3, hLRIG1 Peptide 71 (human); assay: peptide ELISA of Example 2, as told in Example 3
T3 construct: 20 amino acid peptide of the LRIG1 peptide library
T3 peptide: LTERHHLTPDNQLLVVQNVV
Method: as §1

[4] = target: T4, hLRIG1 Peptide 69 (human); assay: peptide ELISA of Example 2, as told in Example 3
T4 construct: 20 amino acid peptide of the LRIG1 peptide library
T4 peptide: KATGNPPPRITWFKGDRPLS
Method: as §1

Binder	binding result [1]	binding result [2]	binding result [3]	binding result [4]
802.2B7.2F9 (antibody, V domains shown, Mouse hybridoma monoclonal) VH: EVQLVESGGGLAKPGGSLKLSCAASGFTFSASAMSWVRQTPEKRLEWVATISDGGSYTYYPDNVKGRFTISRDNAKSNLYLQMSHLKSEDTAMYYCAGGVSTVINFDYWGQGTTLTVSS VL: DVVMTQTPLSLPVSLGDQVSISCRSSQSIVHSNGNTYLEWYLQKPGQSPKLLIYKVSNRFSGVPDRFSGSGSGTDFTLKISRVEAEDLGVYYCFQGSHVPLTFGGGTKLELK	binds	binds	binds	–
802.5G6.2B8 (antibody, V domains shown, Mouse hybridoma monoclonal) VH: EVHLVESGGGLMKPGGSLKLSCAASGFTFSSYAMSWVRQTPEKRLEWVATISDGGSYTYYPDNVKGRFTISRDNAKNNLYLQMSRLKSEDTAMYYCSRAGSTVVNFGYWGQGTTLTVSS VL: DIVMTQTPLSLPVSLGDQASISCRSSQNIAHSNGNTYLEWYLQKPGQSPQLLIYKVSNRFSGVPDRFSGSGSGTDFTLKISRVEAEDLGVYYCFQGSHVPLTFGAGTKLELK	binds	binds	binds	–
802.5G6.2B11 (antibody, V domains shown, Mouse hybridoma monoclonal) VH: EVQLQQSGAELVRPGASVKLSCTASGFNIKDDYLHWVKQRPEQGLEWIGWIDPEKGDTECASKFQGKATITVDTSSNTAYLQLSSLTSEDTAVYFCTTGSTVWGQGTTLTVSS VL: not shown	binds	–	–	binds
